Results on one molecule are retold here after article PMC5797146.

The target of assay [1] is Clostridium difficile toxin A (Clostridium difficile) (UniProt P16154).
Assay [2] has the same target. Put plainly: SPR. A general note: SPR reads the build-up and loss of mass on a sensor chip optically.

“And” between values parts separate entries of the source, which are not always exact repeats. Identical values can stand only once.

B1: A26.8 VHH (parent) (VHH)
VHH: QVKLEESGGGLVQAGGSLRLSCAASERTFSRYPVAWFRQAPGAEREFVAVISSTGTSTYYADSVKGRFTISRDNAKVTVYLQMNNLKREDTAVYFCAVNSQRTRLQDPNEYDYWGQGTQVTVSS
On to B1, for which the other in assay [1] was 70 nM and 60%. Moreover, in assay [2], the Kd (commonly the free concentration of one partner at which half of the binding sites on the other are occupied at equilibrium, for simple one-to-one binding) came out at 18.7 nM; the koff – broadly, the rate constant with which the complex falls apart – was determined as 0.034 s⁻¹; the kon (in general, a measure of how fast the partners come together) was determined as 1.8e+06 M⁻¹ s⁻¹.
